Consider one molecule from US20230242623A1 (GEORGIA TECH RESEARCH, published 2023).

For the test, the target named is T1, SARS-CoV-2 spike ectodomain protein (SARS-CoV-2, UniProt P0DTC2 14-1213).
T1 construct: extracellular domain
The experiment in a line: BLI, immobilized spike ectodomain; avidity reported as 1/Kads. For orientation: In BLI a coated tip is dipped into the sample, and binding shifts an interference pattern.

B1: 3A7 (antibody, V domains shown)
VH: QVTLKESGPGILQPSQTLSLTCSFSGFSLSTSGMGVSWIRQPSGKGLEWLAHIYWDDDKRYNPSLKSRLTISKDTSSSQVFLKITSVDTVDTATYYCARRGPLITTDGTFDVWGAGTTVTVSS
VL: DIVMTQSRKFMSTSVGDRVSITCKASQDVGTSVAWYQQKPGQSPKLLIYWASTRHTGVPDRFTGSGSGTDFTLTINSVQSEDLADYFCQQYSSYPYTFGGGTKLEMK
notes: also called 3A7 clone
As to B1, the Kd was ~10 pM.
